Laboratory results published in patent US20150232557A1 (APTEVO RESEARCH AND DEVELOPMENT, published 2015).

B1: humanized TSC249 Scorpion (huVL-VH#2 107-1A4 scFv-Fc-DRA222 scFv) (bispecific antibody)
chain: DIQMTQSPSAMSASVGDRVTITCRASKSISKYLAWFQQKPGKVPKLRIHSGSTLQSGVPSRFSGSGSGTEFTLTISSLQPEDFATYYCQQHIEYPWTFGQGTKVEIKRGGGGSGGGGSGGGGSQVQLVQSGAEVKKPGASVKVSCKASGYTFTDYYMHWVRQAPGQGLEWMGYFNPYNDYTRYAQKFQGRVTMTRDTSISTAYMELSSLRSDDTAVYYCARSDGYYDAMDYWGQGTTVTVSSSEPKSSDKTHTCPPCPAPEAAGAPSVFLFPPKPKDTLMISRTPEVTCVVVDVSHEDPEVKFNWYVDGVEVHNAKTKPREEQYNSTYRVVSVLTVLHQDWLNGKAYACAVSNKALPAPIEKTISKAKGQPREPQVYTLPPSRDELTKNQVSLTCLVKGFYPSDIAVEWESNGQPENNYKTTPPVLDSDGSFFLYSKLTVDKSRWQQGNVFSCSVMHEALHNHYTQKSLSLSPGQRHNNSSLNTGTQMAGHSPNSQVQLVESGGGVVQPGRSLRLSCKASGYTFTRSTMHWVRQAPGQGLEWIGYINPSSAYTNYNQKFKDRFTISADKSKSTAFLQMDSLRPEDTGVYFCARPQVHYDYNGFPYWGQGTPVTVSSGGGGSGGGGSGGGGSAQDIQMTQSPSSLSASVGDRVTMTCSASSSVSYMNWYQQKPGKAPKRWIYDSSKLASGVPARFSGSGSGTDYTLTISSLQPEDFATYYCQQWSRNPPTFGGGTKLQITSSS
notes: also called anti-PSMA x anti-CD3 bispecific polypeptide homodimer
B2: TSC228 (HD37 x DRA222 scFv heterodimer) (bispecific antibody)
chain 1: DIVLTQSPASLAVSLGQRATISCKASQSVDYDGDSYLNWYQQIPGQPPKLLIYDASNLVSGIPPRFSGSGSGTDFTLNIHPVEKVDAATYHCQQSTEDPWTFGGGTKLEIKGGGGSGGGGSGGGGASQVQLQQSGAELVRPGSSVKISCKASGYAFSSYWMNWVKQRPGQGLEWIGQIWPGDGDTNYNGKFKGKATLTADESSSTAYMQLSSLASEDSAVYFCARRETTTVGRYYYAMDYWGQGTSVTVSSSEPKSSDKTHTCPPCPAPEAAGAPSVFLFPPKPKDTLMISRTPEVTCVVVDVSHEDPEVKFNWYVDGVEVHNAKTKPREEQYNSTYRVVSVLTVLHQDWLNGKAYACAVSNKALPAPIEKTISKAKGQPREPQVYTLPPSRDELTKNQVSLTCLVKGFYPSDIAVEWESNGQPENNYKTTPPVLDSDGSFFLYSKLTVDKSRWQQGNVFSCSVMHEALHNHYTQKSLSLSPGKSRASTKGPSVFPLAPSSKSTSGGTAALGCLVKDYFPEPVTVSWNSGALTSGVHTFPAVLQSSGLYSLSSVVTVPSSSLGTQTYICNVNHKPSNTKVDKKV
chain 2: QVQLVESGGGVVQPGRSLRLSCKASGYTFTRSTMHWVRQAPGQGLEWIGYINPSSAYTNYNQKFKDRFTISADKSKSTAFLQMDSLRPEDTGVYFCARPQVHYDYNGFPYWGQGTPVTVSSGGGGSGGGGSGGGGSAQDIQMTQSPSSLSASVGDRVTMTCSASSSVSYMNWYQQKPGKAPKRWIYDSSKLASGVPARFSGSGSGTDYTLTISSLQPEDFATYYCQQWSRNPPTFGGGTKLQITSSSEPKSSDKTHTCPPCPAPEAAGAPSVFLFPPKPKDTLMISRTPEVTCVVVDVSHEDPEVKFNWYVDGVEVHNAKTKPREEQYNSTYRVVSVLTVLHQDWLNGKAYACAVSNKALPAPIEKTISKAKGQPREPQVYTLPPSRDELTKNQVSLTCLVKGFYPSDIAVEWESNGQPENNYKTTPPVLDSDGSFFLYSKLTVDKSRWQQGNVFSCSVMHEALHNHYTQKSLSLSPGKSRTVAAPSVFIFPPSDEQLKSGTASVVCLLNYFYPREAKVQWKVDNALQSGNSQESATEQDSKDSTYSLSSELTLSKADYEKHKVYACEVTHQGLSSPVTKSFNRGE
notes: TSC049 is HD37 scFv-hinge-CH2-CH3-CH1; TSC222 is DRA222 scFv-hinge-CH2-CH3-CK(YAE); also called anti-CD19 x anti-CD3 bispecific polypeptide heterodimer; TSC049 + TSC222
B3: TSC194 (huVL-VH#2 107-1A4 scFv-Fc-Cris7 scFv) (bispecific antibody)
chain: DIQMTQSPSAMSASVGDRVTITCRASKSISKYLAWFQQKPGKVPKLRIHSGSTLQSGVPSRFSGSGSGTEFTLTISSLQPEDFATYYCQQHIEYPWTFGQGTKVEIKRGGGGSGGGGSGGGGSQVQLVQSGAEVKKPGASVKVSCKASGYTFTDYYMHWVRQAPGQGLEWMGYFNPYNDYTRYAQKFQGRVTMTRDTSISTAYMELSSLRSDDTAVYYCARSDGYYDAMDYWGQGTTVTVSSSEPKSSDKTHTCPPCPAPEAAGAPSVFLFPPKPKDTLMISRTPEVTCVVVDVSHEDPEVKFNWYVDGVEVHNAKTKPREEQYNSTYRVVSVLTVLHQDWLNGKAYACAVSNKALPAPIEKTISKAKGQPREPQVYTLPPSRDELTKNQVSLTCLVKGFYPSDIAVEWESNGQPENNYKTTPPVLDSDGSFFLYSKLTVDKSRWQQGNVFSCSVMHEALHNHYTQKSLSLSPGQRHNNSSLNTGTQMAGHSPNSQVQLVQSGGGVVQPGRSLRLSCKASGYTFTRSTMHWVRQAPGKGLEWIGYINPSSAYTNYNQKFKDRFTISADKSKSTAFLQMDSLRPEDTGVYFCARPQVHYDYNGFPYWGQGTPVTVSSGGGGSGGGGSGGGGSAQDIQMTQSPSSLSASVGDRVTMTCSASSSVSYMNWYQQKPGKAPKRWIYDSSKLASGVPARFSGSGSGTDYTLTISSLQPEDFATYYCQQWSRNPPTFGGGTKLQITR

Assays:
CD3 [1] = target: T1, CD3 (human, UniProt P07766 23-207); experiment: flow cytometry on Jurkat (CD3+) cells, goat anti-human IgG-FITC detection
T1 construct: whole, on cells; CD3 is a multi-chain complex; also called CD3 on T-cells; CD3 on Jurkat (CD3+) T cell leukemia cells
T1 sequence (P07766 23-207): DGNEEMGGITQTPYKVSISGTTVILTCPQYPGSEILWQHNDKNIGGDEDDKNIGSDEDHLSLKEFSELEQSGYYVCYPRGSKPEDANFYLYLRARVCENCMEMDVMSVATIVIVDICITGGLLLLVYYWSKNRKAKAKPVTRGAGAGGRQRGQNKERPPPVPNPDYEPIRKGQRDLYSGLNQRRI
Experimental: Jurkat (CD3⁺) T cell leukemia cells were obtained from ATCC (Manassas, Va.), and cultured according to the protocol provided by ATCC. Binding was assessed by incubating 5×10⁵ Jurkat cells for 30 minutes at 4° C. with serially diluted bispecific molecules TSC228 or TSC249, in concentrations from 250 nM to 0.125 nM (TSC249) or 125 nM to 1 pM (TSC228). The cells were washed three times and then incubated with goat anti-human IgG-FITC (1:200 dilution) for another 30 minutes at 4° C. The cells were then washed again three times, fixed in 1% paraformaldehyde and read on a FACS-Calibur instrument.

CD3 [2] = target: T1, CD3; experiment: cell-based or functional assay

Binder | EC50 (CD3 [1]) [nM] | EC50 for RTCC (CD3 [2]) [nM]
B1 | 1.9 | 0.0029
B2 | 24.5 | –
B3 | – | 0.0028
